Results on two molecules are retold here after publication PMC4336547 (Cellular and molecular life sciences : CMLS, 2011).

The series “FRET or BRET” concerns the molecule itself. The experiment in a line: FRET or BRET. (In general: Bioluminescence resonance energy transfer reports proximity on the nanometre scale.)
Series [1] concerns the target T1, murine claudin-3 wild type, untagged (Cld3wt) (mouse), Q9Z0G9.
T1 chain: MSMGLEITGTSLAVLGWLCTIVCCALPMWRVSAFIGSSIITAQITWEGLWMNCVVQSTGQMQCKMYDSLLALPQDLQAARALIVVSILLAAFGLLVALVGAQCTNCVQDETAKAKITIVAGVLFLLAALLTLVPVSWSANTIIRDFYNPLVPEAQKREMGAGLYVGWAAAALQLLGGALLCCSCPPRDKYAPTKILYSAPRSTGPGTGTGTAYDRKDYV
The experiment in a line: contact enrichment. To be noted: remark: other sources report otherwise.

B1: mouse claudin-5 wild type, CFP or YFP fusion (Cld5wt-CFP / Cld5wt-YFP) (natural protein, UniProt O54942 1-218, looked up)
chain: MGSAALEILGLVLCLVGWVGLILACGLPMWQVTAFLDHNIVTAQTTWKGLWMSCVVQSTGHMQCKVYESVLALSAEVQAARALTVGAVLLALVALFVTLTGAQCTTCVAPGPVKARVALTGGALYAVCGLLALVPLCWFANIVVREFYDPTVPVSQKYELGAALYIGWAASALLMCGGGLVCCGAWVCTGRPEFSFPVKYSAPRRPTANGDYDKKNYV
Regarding B1, the “mean FRET efficiency against the negative control Cld5/CRFR1” value in the series “FRET or BRET” was 10 fold.

B2: murine claudin-3 wild type, untagged (Cld3wt), Q9Z0G9 1-219 (natural protein)
chain: MSMGLEITGTSLAVLGWLCTIVCCALPMWRVSAFIGSSIITAQITWEGLWMNCVVQSTGQMQCKMYDSLLALPQDLQAARALIVVSILLAAFGLLVALVGAQCTNCVQDETAKAKITIVAGVLFLLAALLTLVPVSWSANTIIRDFYNPLVPEAQKREMGAGLYVGWAAAALQLLGGALLCCSCPPRDKYAPTKILYSAPRSTGPGTGTGTAYDRKDYV
Regarding B2, in series [1], the percentage of contacts with EF > 1.5 (PE) was found to be 91%.
